Target: recombinant cofilin (His-tagged fusion protein of human cofilin), P23528
Sequence (P23528 whole entry, the tested form may be a part): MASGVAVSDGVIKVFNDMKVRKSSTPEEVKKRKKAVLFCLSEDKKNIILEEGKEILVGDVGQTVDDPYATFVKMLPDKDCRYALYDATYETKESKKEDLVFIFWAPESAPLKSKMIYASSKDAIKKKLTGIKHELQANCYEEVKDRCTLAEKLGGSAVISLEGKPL

B1: LIM kinase 1 (protein)
chain: MRLTLLCCTWREERMGEEGSELPVCASCGQRIYDGQYLQALNADWHADCFRCCDCSASLSHQYYEKDGQLFCKKDYWARYGESCHGCSEQITKGLVMVAGELKYHPECFICLTCGTFIGDGDTYTLVEHSKLYCGHCYYQTVVTPVIEQILPDSPGSHLPHTVTLVSIPASSHGKRGLSVSIDPPHGPPGCGTEHSHTVRVQGVDPGCMSPDVKNSIHVGDRILEINGTPIRNVPLDEIDLLIQETSRLLQLTLEHDPHDTLGHGLGPETSPLSSPAYTPSGEAGSSARQKPVLRSCSIDRSPGAGSLGSPASQRKDLGRSESLRVVCRPHRIFRPSDLIHGEVLGKGCFGQAIKVTHRETGEVMVMKELIRFDEETQRTFLKEVKVMRCLEHPNVLKFIGVLYKDKRLNFITEYIKGGTLRGIIKSMDSQYPWSQRVSFAKDIASGMAYLHSMNIIHRDLNSHNCLVRENKNVVVADFGLARLMVDEKTQPEGLRSLKKPDRKKRYTVVGNPYWMAPEMINGRSYDEKVDVFSFGIVLCEIIGRVNADPDYLPRTMDFGLNVRGFLDRYCPPNCPPSFFPITVRCCDLDPEKRPSFVKLEHWLETLRMHLAGHLPLGPQLEQLDRGFWETYRRGESGLPAHPEVPD
  in vitro phosphorylation of recombinant cofilin (immune complex kinase assay, autoradiography): immunoprecipitated LIMK1 (FIG. 2, a and b) from PC3 cells was capable of phosphorylating recombinant cofilin (FIG. 2c)
